Test: soluble on expression in E. coli; label from the status in PepcDB or PDB records
With “MFRISQLLKTLHDDMAELKPVKASRKMKGPVVIWNLIRRCNLQCKHCYSTSLDIDFKDELSTEQVKTTIDDLKVAHVPVLILSGGEPLLRPDIYEITEYAKQKGFYLALSTNGTLINEDNIEAIKAAEYQYVGISIDGLEEFHDEFRRQKGSFKTSMHAIKLCKDAGIKVGMRLCLTRENFKDLPAMLNLMEENSVDKFYLSHLNYSGRGKRTAENDAMFKMTKDAMELLYERAWTHINQGIETDFVTGNNDADGPFLLQWASKQFAEEYPEAIANLKQRLINWGGNSSGINVANIDNTGTIHPDTYWWNHPIGNVTTEKFSDVWRDTQDPLMLGFRQTPRPVKGRCASCEHLAICGGNTRTRAFAQSGDAWAEDPGCYLDDDEIGFIPSPSKFADELTNTENPIQFVEV” the “soluble on expression in E. coli” value was “not soluble”. For “MAETKIVVGPQPFSVGEEYPWLAERDEDGAVVTFTGKVRNHNLGDSVNALTLEHYPGMTEKALAEIVDEARNRWPLGRVTVIHRIGELWPGDEIVFVGVTSAHRSSAFEAGQFIMDYLKTRAPFWKREATPEGDRWVEARESDQQAAKRW”, the “soluble on expression in E. coli” value was “soluble”. For “MPIVRWGKTIKQELSEGWSRVIQHELTGKLDGHHGGFHETGDESMSDDLSDQARSTAVKQLKALGLSTYAARTFVALISLGEGTAQDVSEVADVPRTRVYDAADELRDRGLVDVKQSSPRRYWAISTETAGRHFEQEYDHRVTVLTNALDRLASANRSTEQQGVWTVTGRDTVTGRVVDFISSADDEVVYMTAEELLTDEIAESLSTASDRGVTIRLAEMSQSVEAQLERDVPDAQLFESAWEWSDTPAGRLLMIDQQKTLVSVLVGANGGYSLEPSDETAIWGTGQSNSLVVVLKALFAWQLANNRE”, the “soluble on expression in E. coli” value was “not soluble”. With “NPNTCTESIGKVAPSYVDEPESEAPATAENTQPDVIIDWQAALKQSANKEDLAKDMLRMLIDFIPEVEEVVDHALEQDDYSREELIHVIHKLHGSSSYCGVPRLKSLCATLEHALRSGASIEEIEPEMFELQDEMIKVTTTAKLYLEQ” the “soluble on expression in E. coli” value was “not soluble”. With “MIEQCWSEIQEEQSPTSQIGQLRVQGLRDKRVIVEYIPLILKTFLLSKTSGVGPLIIPVRCFTCGKVIGDKYYEFKRRVEAGEDPEKVLDDLGLERYCCRRMLLSHVELIDDIMHYKVY” the “soluble on expression in E. coli” value was “soluble”. For “AADALVRVDGFERTSSSNTVTDIVPGVVLNLTKAAEGTKVTLGVTADTSGLKGNLTAFAAAYNTANTLLKNSSSYNAETRTASALTGDSLVRGLQQQLRGQVSGSISELKALGLTIDKDGVMSFDGGKFDTAIAADGGAAAEALGKDSKFGSGLTKLLDANVNVNNGTLTLRSDSLNKQIKGFEADLDNLDARMEKLTDRYTAQFTAMETMISKMQGATGSLSSLLAI”, the “soluble on expression in E. coli” value was “not soluble”. With “MSLAELDLTGGMDEARGDIADLLGKEERKILTTGNAEIDKKIADGLPLGSLTLIEGENDTGKSVLTQQFIWGSMHNNLRVDLFSTELTTKSFLTQMESMSLDISDFFAWGYIRLFHCHLVEFKWTPDAMNDILERIITHVKFSNTDVAIIDSLTIFTEYTTNEAVLTFLTQAKNICDQGKTILITMHSYAFTDEVLTRVRSICDAHLLLMRKLMGDKYVMVLEVVKVRGARKTTGNLVSFEVHPGYGMKIIPVSVAKVEGHHHHHH” the “soluble on expression in E. coli” value was “soluble”. For “MAHHHHHHMCLSNLSYFFGAFEAVEPARSENDGGYASDWLSTLYSSLGLVLAHYLFEDNVEATVEATRILGNISYTNAGRDWMEANHCDEVTVLFLGHEDLRVVYNCCGVLLNLTAASPCRVVQDPELLQTMLSYTSRYTDQDRVEAVTALEEARLRQEQQELQQQRRGGDMKELVSEASSHVAQISDIVEKLLLNVHGVLHASAI”, the “soluble on expression in E. coli” value was “not soluble”. In the case of “GPGSMTEKPAKEPPLPRDLKAQFDVLAGTRWDGVGDDADAAEQLSQLRQEWKALGNACYGKGYFLAAIRCYSRLLEVPGGDTAQIRSNRSAAYLQSPMLVGPSLALKDAEKAVELDPQWFKAHLRVGDAHRKRGHFAEAEAAYREALARQPECATALAGLRALQVESAGLPAAAATFPRGHAERTPYHNAPPSPRSLSSRTTAHAVAVAQAKEEELQLTQEQLVHKWKADISTREGRTGCRPRQASLSQADRQHGAAIKQALLARFRDKLESNGEFSAILRNRCEEAMLRGEGINYRDADKLRNTYSHATNGIGLGISSDAYKEYTGRVDHRTW”, the “soluble on expression in E. coli” value is reported as “soluble”. In the case of “MKDQGRSPRKRTGGRRRPNHKKKKHELGKDTVETQVGEQRLKTVDSRGNTQKVRAVKTDVASIADGAETIEATIENVVENPSNPNYARRNIITKGAILETSEGQARVTSRPGQHGQVNAVLVEAAALEHHHHHH”, the “soluble on expression in E. coli” value is reported as “soluble”. In the case of “ENLGATVIPASTGNTEKHVRLIRDLGITGIACTPSYALYLAEVVERMGLTKNDINLRIGAFGAEPWTESMRKEIEERLGLKGYNIYGLSEIMGPGVSYECQEQH”, the “soluble on expression in E. coli” value is reported as “not soluble”. For “GIKDSPVNKVEPNDTLEKVFVSVTKYPDEKRLKGLSKQLDWSVRKIQCWFRHRRNQDKP”, the “soluble on expression in E. coli” value was “soluble”. With “MASRGLDLWLDEHVWKRKQEIGVKGENLLLPDLWLDFLQLSPIFQRKLAAVIACVRRLRTQATVYPEEDMCMAWARFCDPSDIKVVILGQDPYHGGQANGLAFSVAYGFPVPPSLRNIYAELHRSLPEFSPPDHGCLDAWASQGVLLLNTILTVQKGKPGSHADIGWAWFTDHVISLLSERLKACVFMLWGAKAGDKASLINSKKHLVLTSQHPSPLAQNSTRKSAQQKFLGNNHFVLANNFLREKGLGEIDWRL” the “soluble on expression in E. coli” value was “soluble”. For “MSLKIKEITIWKEDLALTRPYTIAYETISAVENVFVLLETDNGITGIGAGSPAEDVTGETITATETALSLKLAPILQGKDIRSCFSLLKELNTALADTPAALAAADIALHDLAAKTMGLPLVDLLGRVHDRLPTSITIGIMPVKETLAEAEEYLGRGFSILKIKTGLNVEEDIERIIRLNETFKSKICMRVDANQGYEVEELHHFFKKTVGLVEFIEQPLKAEHLEKMGQLPQAIRRVSAADETLLGPRDAAQMLHAPRPFGIFNIKLMKCGGIAPGLEIANMAGHADIDLMWGCMDESIVSIAGALHAAFSSRATRYLDLDGSLDLARDIVNGGFILENGWMRTTDQPGLGVKRIEGHHHHHH”, the “soluble on expression in E. coli” value was “soluble”. For “MSNSDEQILQFYVEHFEKALEKTQNVLLEFAESPLNHLKPTKRATDAQAFQFNSTCPGVENLNKLEREALFQQSSFVNLWLNLAYTCSKSSLSFWDSRDQGSEGGKLEVFMPRLHDSLTTEFHRIHLDPQEFATICAITTWKIHQWGTVEANTVAGQHYLAVIKELNNHHKKTTTMRDFERALRITEIISLLVPIGRMLQEVKTLYETLGIKDDGRE”, the “soluble on expression in E. coli” value was “not soluble”. In the case of “KKYVVFDMDGTLTTTDFEDVKQYAGEFFNSNYVAKMYPDVDNVVKYYASKGYGILYLTARPYWLSEESQTWLWKNGFPMGLLHTYTGGDVLLGEEAESFKAGYLNQLKSQGIEFDYGFGNEKTDVEAYSNIGIAKSNIFTIGKNRGIDGSVSIVSYTDYLKQLSGN”, the “soluble on expression in E. coli” value is reported as “not soluble”. In the case of “FPDILDNRIEKMSSCFKQAAEEYGYKAENFIIYPIKVNQMRPVVEEIISHGKKFNLGLEAGSKPELHAVIAVNTDSDSLIVCNGYKDESYIELALLAQKMGKRIFLVVEKMNELKLIAKMAKQLNVQPNIGIRIKLASSGSGKWEESGGDASKFGLTSSELLEALDFMESKGLKDCLKLIHFHIGSQVTKIRRIKTALREASQFYVQLHSMGFNVEFVDIGGGLGVDYDGTRSSNSEGSVNYSIQEYVNDSISTLVDVSDKNGIPHPNIITESGRALTAH”, the “soluble on expression in E. coli” value is reported as “soluble”. With “MSLEIKNVSKQIGDRKILDNISLTIDKGSLVVLIGSSGCGKTTTLKLINKLITPTSGEIFINGKSLAKENPIELRRNIGYVIQNNGLFPHLTIKENIELIPRLKKGKDVEKIEKTTLDLLNMVGLDPEIYLNKYPSELSGGQQQRVGFARAFATDAEIILMDEPFSALDPITRTSLQEELFNIQEELKKTIIFVTHDMDEALKIADKICIMNGGKIAQYDTPENILRNPANDFVRDFIGSDRVWNNPDFIKAKDIMIKNPVSVKGARTILQGIEIMRSNKVDSLLVIDKENVLKGIVTFKDIKITNEKSRALSEIMSENPLRVNEDDSLVDILTVMNENSVGFIPVVNSEEKLVGLITRSSLLSILSDQFLDMEVNIFEEGHHHHHH” the “soluble on expression in E. coli” value was “soluble”. With “MGSDKIHHHHHHMKKLRELTVEELFESFVLIKNADVRVAKNGKKFIAFTFQDTSGTIDGKYWDASEDEITRFTAGNVVLLNGKREVYQNKPQVKILHMRLATAEEPSQPSLYMERAPLKKEEMVEEINQVIFEITNAHWNRIVRYLMTKYQQEFYEFPAAKRNHHAFANGLAYHTVSMLRLGKAIAKEYTEINTSLLYAGIILHDLGKVLELSGAITTEYTVAGNLIGHLVLVDEEITKACLALKIDDREEDVVVLRHMVLAHHGLLEYGSPVRPRIMEAEILHQIDTMDASIQMMLGAIRQTQPGEYTERIFGLDNRSFYVPKDK” the “soluble on expression in E. coli” value was “not soluble”. In the case of “MQAVNTTSGGAVGVERQQYMFSMLSTDEVNQMYAQSYQQTLGEASSKGVLDKSSADAKRVQAIANRLIAQAPKFRPDAAQWDWQVNVIKSDELNANCGPGGKIIVYTGLIDQLKLTDAEIAAVVGHEIAHALREHSREAMSKAYGVEMARQGAGAIFGLGQSSMAMADTVVNYAMTLPNSRANENEADLIGLELSARAGYDPNAAITLWNKMSKASEGAPPEFMSTHPASASRIASLQAAIPKVMPLYQAAAKPLEHHHHHH”, the “soluble on expression in E. coli” value is reported as “soluble”. With “MYPDHMFKYVIIGDGGVGKSNLLLRFTDELFDPIHTTTLGVEFGYKDLQIDKYKVRLRVWDTCGQENFRSIIRAYYRNALGALLVYDITCRKSFVHLEQWLSDLRQHGHPEMVIMLIGNKSDLKAVRDVTTEEGEAFAKKNGLTFMETSAKANKHVEKAFVNTAHEIYKKLKLGVIEDDDVKKKKIGIILRSRSGKEKKCC” the “soluble on expression in E. coli” value was “soluble”. For “MSLTNKMIYDQASGLRRLTQPSVTKVISVTGGKGGVGKSNVTLGMAICMAKQGKKVMVLDADLGLANVDVMLGIRPKRNLGHVLAGECELKDAIVEGPHGIRIIPATSGTQSMTELSHAQHVGLIRAFGTLEDEMDILLIDTAAGISDMVVSFSRAAQDVVVVVCDEPTSITDAYALIKLLSKEHQVQRFKIVANMVRSYREGRELFAKLTLVTERFLNVSLELVACIPLDDNVRQAVKRQKIVVDAYPRSPAALAISSLANKALTWPIPRTPSGHLEFFVERLLNRSEGHHHHHH”, the “soluble on expression in E. coli” value was “soluble”. In the case of “AHHHHHHGSRELVEIIKGIGIEGAKEVEEKVDRQFYALQYLFRHQDPEMFIKLVIANSLVSYQLTGRGEDWWWEFARYFSGREVDSIWKAYGEFLPKSKNNRRLIEAKLNRIRKVEGFLSTLTLKDLEGYYKNMKMLWKALIKIMGSREDSKTIVFTVKMFGYASRIAFSRFIPYPMEIPIPEDLRIKSVTSKLTQEKPTKFWMKIGQESGVPPLHIDSLIWPLLGNADLTPLDIELRNKLMKLTELLGL”, the “soluble on expression in E. coli” value is reported as “soluble”. In the case of “MLPRLGGFLAGFSSTISSFLPKTTASTLFTHQSSQFSTSFPAWRNNFLQFIHYRNGPPKRRARSKDKSAISGYSHYKGIVLKTVIRHPKKPNSGNRKCAIVRLSTGAEVCAYIPNVGHNLQEHSQVLVKGGRRRDLISVKANIVRGKYDCAPAGGRK”, the “soluble on expression in E. coli” value is reported as “not soluble”.

— the DeepSol protein solubility set
